The supplement of paper PMC12764529
± gives the half width of the 95% confidence interval.

Legend:
[1] = folding stability dG unfold from trypsin proteolysis; higher = more stable
Method in brief: (§1)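 Digests were run with trypsin and chymotrypsin at 11 concentrations in threefold dilutions, plus a no-protease condition, on designed mini-proteins in a PA-tagged cDNA display construct. The mini-proteins were under 80 residues, had no cysteine, and were kept only when AlphaFold2 dimer inter-PAE was above 15. After sequencing, Bayesian fitting of the counts gave K50, from which unfolding free energy was derived against a sequence-predicted unfolded-state K50 and a shared folded-state K50, per protease or combined.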

[2] = folding stability dG unfold from chymotrypsin proteolysis; higher = more stable
Method in brief: as §1

[3] = folding stability dG unfold (combined trypsin and chymotrypsin); higher = more stable
Method in brief: as §1

| Sequence | folding stability dG unfold [1] [kcal/mol] | folding stability dG unfold [2] [kcal/mol] | folding stability dG unfold [3] [kcal/mol] |
| --- | --- | --- | --- |
| SAGGSAGGSAGDGWRKASFIIDPNGEILEPIPLPPGVKVEVEPFPGDGMYFVEITIPPDDSAGGSAGGSAGG [r11_32_TrROS] | -0.497 ± 0.22 | 0.684 ± 0.099 | 0.378 ± 0.17 |
| SAGGSAGGSAGDKGYVMVTFPIEMTQYVYDPDGKPIGQHKHEMPITVMIPPNAAKKLLQASAGGSAGGSAGG [r11_620_TrROS] | 0.186 ± 0.067 | 0.773 ± 0.062 | 0.592 ± 0.07 |
| SAGGSAGGSAGDKRITIWFPVPPGQPPPTLEEIADELPGFEDVDIDVEMYPNGYYRITIESAGGSAGGSAGG [r17_205_TrROS] | 0.812 ± 0.047 | 1.05 ± 0.14 | 0.966 ± 0.078 |
| SAGGSAGGSAGDLLKEAVEEAKDSGHPNVPIRFNFPGGTIRITVKVDPKNGKVEIKVEPVSAGGSAGGSAGG [r17_475_TrROS] | 0.674 ± 0.12 | 0.445 ± 0.1 | 0.645 ± 0.29 |
| SAGGSAGGSAGDNKPKPIKIRIESYYPNGKKQEHDFEVPDPEDLDELAKTNPGYKIDEIESAGGSAGGSAGG [r11_802_TrROS] | -0.258 ± 0.057 | 0.821 ± 0.056 | 0.478 ± 0.12 |
| SAGGSAGGSAGDNWVIRIWWPNGKEQVFPGNLEDLLERIPPDNKDMKVEIFDPDDGKEIWSAGGSAGGSAGG [r11_353_TrROS] | 1.09 ± 0.043 | 1.01 ± 0.17 | 1.1 ± 0.17 |
| SAGGSAGGSAGDPGERPYVEVTVRIPITPGLEIPWWIPPENMPPEDAEKFAQDIAKEFLDSAGGSAGGSAGG [r11_409_TrROS] | 0.889 ± 0.047 | -0.482 ± 0.17 | 0.426 ± 0.11 |
| SAGGSAGGSAGDPGQELMFMWIWPWPNPDGQPWVRIFMWSVRVDDGKIKEIEPTTMWIPLSAGGSAGGSAGG [r11_35_TrROS] | 3.08 ± 0.17 | 3.774 ± 0.032 | 3.55 ± 0.26 |
| SAGGSAGGSAGDSPSTPVLVTETFTFPVTVTAPNEGGYSTTTSTVTVTVTLEVYVSPSFPSAGGSAGGSAGG [r17_186_JUSTAS] | 2.2 ± 0.053 | 2.92 ± 0.04 | 2.62 ± 0.061 |
| SAGGSAGGSAGDTLILVRNEDGRLYLIRVRAYRVPGEDGSLVFEVEIVEFPSLEEALAALSAGGSAGGSAGG [r11_967_TrROS_Hall] | 4.05 ± 0.065 | 4.825 ± 0.039 | 4.66 ± 0.051 |
| SAGGSAGGSAGEEVILRIKVKLKNGEERTIEINMTLDELLAELPENVTEIKIEAIPKEDLSAGGSAGGSAGG [r11_596_TrROS_Hall] | 1.29 ± 0.052 | 1.54 ± 0.017 | 1.46 ± 0.079 |
| SAGGSAGGSAGEKEITISILVKGEDGRLYAIKMKAKITFDEKTNELKIEIEEISITPLPPSAGGSAGGSAGG [r17_129_TrROS_Hall] | 3.98 ± 0.21 | 4.29 ± 0.16 | 4.32 ± 0.23 |
| SAGGSAGGSAGEKPVYYARVTEVKYNPENKELEIKLENGETITLSLEELKSLKPGDIIRISAGGSAGGSAGG [r11_124_TrROS_Hall] | 1.88 ± 0.057 | 2 ± 0.023 | 1.97 ± 0.065 |
| SAGGSAGGSAGEPKIIPIKLPENAKVEEFENPDGYPIKIFENPDNGEIWIVWPDGKIWPISAGGSAGGSAGG [r11_601_TrROS] | 1.19 ± 0.051 | 0.719 ± 0.056 | 0.93 ± 0.067 |
| SAGGSAGGSAGEPVEIEIKIKVEVNGKTYEITAKLEVYKNEDGSYEVKLYAPPEAITEVESAGGSAGGSAGG [r11_816_TrROS_Hall] | 2.47 ± 0.21 | 2.99 ± 0.09 | 2.7 ± 0.24 |
| SAGGSAGGSAGETITVKIVRFKPGSPEVRKLAEKLGLSEEEVEPVEVFTFKSEEELKAALSAGGSAGGSAGG [r11_83_TrROS_Hall] | -0.172 ± 0.12 | 0.471 ± 0.24 | 0.374 ± 0.16 |
| SAGGSAGGSAGEVVVEEKEDPSGVLTRTETYPDSVVVTEYKIAPDGKTTEPKPTILPKSESAGGSAGGSAGG [r17_72_JUSTAS] | -0.494 ± 0.1 | -0.583 ± 0.22 | -0.337 ± 0.15 |
| SAGGSAGGSAGFEAFVEEIKKDGDYKVEAFVFDNESGIKTLVIVLESPEEDKYEIRTFNISAGGSAGGSAGG [r11_753_TrMRF] | 0.769 ± 0.038 | 0.796 ± 0.24 | 0.829 ± 0.14 |
